For experiment [1], the target named is 3C8 iAb_(aff1) Fab (anti-OX40 clone 3C8 engrafted with the iAb_(aff1) residue set, expressed as a monomeric Fab). Put plainly: AUC; sedimentation velocity; 3C8 iAb_(aff1) Fab at 0.6, 0.2 and 0.07 mg/ml in 25 mM histidine acetate pH 5.5, 150 mM NaCl; 20 °C, 50,000 RPM; global fit to a monomer-dimer equilibrium model (dimer to monomers).
Experiment [2] shares this target.

One molecule from publication PMC10799922 can be followed below.

As usually defined, the Kd is the free concentration of one partner at which half of the binding sites on the other are occupied at equilibrium, for simple one-to-one binding. Read a low Kd as higher affinity. The term stoichiometry N denotes a count of units in the complex or per binding partner.

B1: 3C8 iAb_(aff1) Fab (anti-OX40 clone 3C8 engrafted with the iAb_(aff1) residue set, expressed as a monomeric Fab) (Fab, V domains shown)
VH: EVQLVQSGAEVKKPGATVVVLCKASGYAFTNYLIEWVRQAPGQGLEWIGVINPGSGDTYYSEKFKGRVTLFADTSTSQAILILTSLRSEDTAVYYCARDRLDYWGQGTLVTVSS
VL: DIQMTQSPSSLSASVGDRVTITCHASQDISSYIVWYQQKPGKSFKGLIYHGTNLESGVPSRFSGSGSGTDFTLTISSLQPEDFATYYCVHYAQFPYTFGQGTKVEIK
B1: in experiment [1], the Kd is 6.8 µM and the stoichiometry N came out at 2. In experiment [2], the OX40 agonism of the monomeric Fab in Jurkat OX40 NF-kB luciferase reporter cells; EC50 against the full-length iAb (aff1) IgG came out at 100 fold.
